Experimental findings from patent US20240209076A1 (KODIAK SCIENCES, published 2024) are described below.

The chains are these.
B1: anti-IL-6 antibody, heavy chain A49T, light chain WT (antibody, IgG1, V domains shown)
VH: EVQLVESGGGLVQPGGSLRLSCAASGFTFSPFAMSWVRQAPGKGLEWVTKISPGGSWTYYSDTVTGRFTFSLDTSKSTAYLQMNSLRAEDTAVYYCARQLWGYYALDIWGQGTLVTVSS
VL: DIQLTQSPSSLSASVGDRVTITCSASISVSYMYWYQQKPGKAPKLLIYDMSNLASGVPSRFSGSGSGTDFTLTISSLQPEDFATYYCMQWSGYPYTFGQGTKVEIK
notes: Full IgG1 tested; V domains derived as in m2
B2: anti-IL-6 antibody, heavy chain T58V, light chain WT (antibody, IgG1, V domains shown)
VH: B1 VH with T49A, T58V
VL: B1 VL
notes: as for B1
B3: anti-IL-6 antibody, heavy chain F27P, light chain WT (antibody, IgG1, V domains shown)
VH: B1 VH with F27P, T49A
VL: B1 VL
notes: as for B1
B4: anti-IL-6 antibody, heavy chain F27R, light chain WT (antibody, IgG1, V domains shown)
VH: B1 VH with F27R, T49A
VL: B1 VL
notes: as for B1
B5: anti-IL-6 antibody, heavy chain S30W, light chain WT (antibody, IgG1, V domains shown)
VH: B1 VH with S30W, T49A
VL: B1 VL
notes: as for B1
B6: anti-IL-6 antibody, heavy chain S35Q, light chain WT (antibody, IgG1, V domains shown)
VH: B1 VH with S35Q, T49A
VL: B1 VL
notes: as for B1
B7: anti-IL-6 antibody, heavy chain S30G, light chain WT (antibody, IgG1, V domains shown)
VH: B1 VH with S30G, T49A
VL: B1 VL
notes: Full IgG1 tested; V domains derived as in m2; also called S30G (heavy chain)
B8: anti-IL-6 antibody, heavy chain T28E, light chain WT (antibody, IgG1, V domains shown)
VH: B1 VH with T28E, T49A
VL: B1 VL
notes: as for B1
B9: anti-IL-6 antibody, heavy chain T28K, light chain WT (antibody, IgG1, V domains shown)
VH: B1 VH with T28K, T49A
VL: B1 VL
notes: as for B1
B10: anti-IL-6 antibody, heavy chain L106I, light chain WT (antibody, IgG1, V domains shown)
VH: B1 VH with T49A, L106I
VL: B1 VL
notes: as for B1
B11: anti-IL-6 antibody, heavy chain R98G, light chain WT (antibody, IgG1, V domains shown)
VH: B1 VH with T49A, R98G
VL: B1 VL
notes: as for B1
B12: anti-IL-6 antibody, heavy chain F27V, light chain WT (antibody, IgG1, V domains shown)
VH: B1 VH with F27V, T49A
VL: B1 VL
notes: as for B1
B13: anti-IL-6 antibody, heavy chain A105H, light chain WT (antibody, IgG1, V domains shown)
VH: B1 VH with T49A, A105H
VL: B1 VL
notes: as for B1
B14: anti-IL-6 antibody, heavy chain Q99A, light chain WT (antibody, IgG1, V domains shown)
VH: B1 VH with T49A, Q99A
VL: B1 VL
notes: as for B1
B15: anti-IL-6 antibody, heavy chain S30Y, light chain WT (antibody, IgG1, V domains shown)
VH: B1 VH with S30Y, T49A
VL: B1 VL
notes: as for B1
B16: anti-IL-6 antibody, heavy chain F27S, light chain WT (antibody, IgG1, V domains shown)
VH: B1 VH with F27S, T49A
VL: B1 VL
notes: as for B1
B17: anti-IL-6 antibody, heavy chain T58R, light chain WT (antibody, IgG1, V domains shown)
VH: B1 VH with T49A, T58R
VL: B1 VL
notes: as for B1
B18: anti-IL-6 antibody, heavy chain T28A, light chain WT (antibody, IgG1, V domains shown)
VH: B1 VH with T28A, T49A
VL: B1 VL
notes: as for B1
B19: anti-IL-6 antibody, heavy chain S56R, light chain WT (antibody, IgG1, V domains shown)
VH: B1 VH with T49A, S56R
VL: B1 VL
notes: as for B1
B20: anti-IL-6 antibody, heavy chain S35H, light chain WT (antibody, IgG1, V domains shown)
VH: B1 VH with S35H, T49A
VL: B1 VL
notes: as for B1
B21: anti-IL-6 antibody, heavy chain G102D, light chain WT (antibody, IgG1, V domains shown)
VH: B1 VH with T49A, G102D
VL: B1 VL
notes: as for B1
B22: anti-IL-6 antibody, heavy chain S56H, light chain WT (antibody, IgG1, V domains shown)
VH: B1 VH with T49A, S56H
VL: B1 VL
notes: as for B1
B23: anti-IL-6 antibody, heavy chain A97V, light chain WT (antibody, IgG1, V domains shown)
VH: B1 VH with T49A, A97V
VL: B1 VL
notes: as for B1
B24: anti-IL-6 antibody, heavy chain A105Q, light chain WT (antibody, IgG1, V domains shown)
VH: B1 VH with T49A, A105Q
VL: B1 VL
notes: as for B1
B25: anti-IL-6 antibody, heavy chain F27G, light chain WT (antibody, IgG1, V domains shown)
VH: B1 VH with F27G, T49A
VL: B1 VL
notes: as for B1
B26: anti-IL-6 antibody, heavy chain T63D, light chain WT (antibody, IgG1, V domains shown)
VH: B1 VH with T49A, T63D
VL: B1 VL
notes: as for B1
B27: anti-IL-6 antibody, heavy chain T58K, light chain WT (antibody, IgG1, V domains shown)
VH: B1 VH with T49A, T58K
VL: B1 VL
notes: as for B1
B28: anti-IL-6 antibody, heavy chain S61A, light chain WT (antibody, IgG1, V domains shown)
VH: B1 VH with T49A, S61A
VL: B1 VL
notes: as for B1
B29: anti-IL-6 antibody, heavy chain T28Y, light chain WT (antibody, IgG1, V domains shown)
VH: B1 VH with T28Y, T49A
VL: B1 VL
notes: as for B1
B30: anti-IL-6 antibody, heavy chain Q99H, light chain WT (antibody, IgG1, V domains shown)
VH: B1 VH with T49A, Q99H
VL: B1 VL
notes: as for B1
B31: anti-IL-6 antibody, heavy chain S61R, light chain WT (antibody, IgG1, V domains shown)
VH: B1 VH with T49A, S61R
VL: B1 VL
notes: as for B1
B32: anti-IL-6 antibody, heavy chain D62F, light chain WT (antibody, IgG1, V domains shown)
VH: B1 VH with T49A, D62F
VL: B1 VL
notes: as for B1

Numbering of substitutions follows the chain as printed. Names and notes keep the numbering of the source.

As usually defined, the Kd is the constant that tells how readily two partners part at equilibrium. The koff is the first-order rate constant of dissociation. Usually kon stands for the rate constant with which the complex forms.

T1 sequence (P05231 30-212 limits assumed): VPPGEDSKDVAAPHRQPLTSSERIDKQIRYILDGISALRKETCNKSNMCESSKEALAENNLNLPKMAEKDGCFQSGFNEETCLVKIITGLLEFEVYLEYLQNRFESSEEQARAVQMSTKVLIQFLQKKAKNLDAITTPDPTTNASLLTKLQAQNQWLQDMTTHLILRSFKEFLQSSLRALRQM

The experiment concerns the target T1, recombinant human IL-6 (human, UniProt P05231 30-212).
T1 construct: Flowed in solution over the captured antibodies
The experiment is described as follows: SPR (Biacore), supernatant IgG on Protein A, 25 C. How it is done:
Antibodies were captured on a Protein A chip (GE) by injecting 1:20 dilution of cell supernatant at 10 μL/min for 60 seconds. […] The sensor chip was regenerated by a 60 seconds injection of 10 mM Glycine pH 1.7 at flow rate of 50 μL/min. […] For this setup, 1 μg/mL of purified antibody was injected over a Protein A chip at 10 μL/min for 25-28 seconds. Data analysis for supernatant and purified samples were performed using BIAevaluation software (GE). All sensorgrams were double reference subtracted and fit using a 1:1 Langmuir binding model.
(In general: In SPR one partner is held on a chip, and binding of the other changes the refractive index at the surface.)
B1: the dissociation constant (Kd) worked out at 337 pM, the off-rate constant (koff) amounted to 0.000151 s⁻¹ and the on-rate constant (kon) worked out at 448000 M⁻¹ s⁻¹.

B2: the Kd stood at 226 pM, the koff came out at 0.000181 s⁻¹ and the on-rate (kon) is 803000 M⁻¹ s⁻¹.

On to B3, for which the dissociation constant Kd was determined as 344 pM, the koff came to 0.000196 s⁻¹ and the kon is 570000 M⁻¹ s⁻¹.

With B4, the Kd came to 415 pM, the off-rate (koff) came to 0.000209 s⁻¹ and the association rate constant (kon) amounted to 503000 M⁻¹ s⁻¹.

With B5, the dissociation constant Kd turned out to be 376 pM, the dissociation rate constant (koff) is 0.000157 s⁻¹ and the association rate constant (kon) amounted to 417000 M⁻¹ s⁻¹.

Consider B6, for which the dissociation constant (Kd) worked out at 346 pM, the dissociation rate constant (koff) was 0.00013 s⁻¹ and the on-rate constant (kon) is 375000 M⁻¹ s⁻¹.

B7: the dissociation constant (Kd) worked out at 333 pM, the off-rate constant (koff) stood at 0.000132 s⁻¹ and the kon turned out to be 398000 M⁻¹ s⁻¹.

As to B8, the equilibrium dissociation constant (Kd) is 347 pM, the dissociation rate constant (koff) stood at 0.000163 s⁻¹ and the kon stood at 469000 M⁻¹ s⁻¹.

For the molecule B9, the dissociation constant Kd is 370 pM, the koff worked out at 0.000143 s⁻¹ and the kon is 386000 M⁻¹ s⁻¹.

Turning to B10, the dissociation constant (Kd) worked out at 279 pM, the koff is 0.000134 s⁻¹ and the kon was found to be 479000 M⁻¹ s⁻¹.

As for B11, the equilibrium dissociation constant (Kd) was found to be 1420 pM, the off-rate (koff) is 0.000251 s⁻¹ and the on-rate (kon) turned out to be 176000 M⁻¹ s⁻¹.

With B12, the Kd was 442 pM, the koff came to 0.000208 s⁻¹ and the on-rate constant (kon) was 470000 M⁻¹ s⁻¹.

As to B13, the equilibrium dissociation constant (Kd) was 1790 pM, the koff stood at 0.000723 s⁻¹ and the association rate constant (kon) turned out to be 404000 M⁻¹ s⁻¹.

With B14, the equilibrium dissociation constant (Kd) was 2000 pM, the off-rate constant (koff) was 0.000737 s⁻¹ and the kon stood at 368000 M⁻¹ s⁻¹.

B15: the Kd turned out to be 334 pM, the koff was found to be 0.000122 s⁻¹ and the kon was found to be 365000 M⁻¹ s⁻¹.

B16: the Kd was 278 pM, the off-rate (koff) came to 0.000203 s⁻¹ and the kon amounted to 731000 M⁻¹ s⁻¹.

For the molecule B17, the equilibrium dissociation constant (Kd) was found to be 426 pM, the off-rate (koff) amounted to 0.000152 s⁻¹ and the kon worked out at 357000 M⁻¹ s⁻¹.

As for B18, the dissociation constant (Kd) is 354 pM, the off-rate constant (koff) came out at 0.000139 s⁻¹ and the on-rate constant (kon) was found to be 393000 M⁻¹ s⁻¹.

With B19, the dissociation constant Kd was determined as 567 pM, the koff came to 0.000155 s⁻¹ and the kon was 273000 M⁻¹ s⁻¹.

For B20, the dissociation constant Kd was found to be 379 pM, the koff was found to be 0.000132 s⁻¹ and the on-rate (kon) came out at 348000 M⁻¹ s⁻¹.

B21: the Kd came to 1330 pM, the koff worked out at 0.0006 s⁻¹ and the kon came out at 452000 M⁻¹ s⁻¹.

As for B22, the dissociation constant Kd was 452 pM, the koff turned out to be 0.000161 s⁻¹ and the kon was found to be 356000 M⁻¹ s⁻¹.

On to B23, for which the equilibrium dissociation constant (Kd) was 574 pM, the off-rate (koff) was 0.000179 s⁻¹ and the on-rate (kon) stood at 311000 M⁻¹ s⁻¹.

Regarding B24, the dissociation constant Kd is 1040 pM, the koff is 0.000493 s⁻¹ and the kon worked out at 474000 M⁻¹ s⁻¹.

With B25, the Kd was 240 pM, the koff stood at 0.000206 s⁻¹ and the on-rate constant (kon) was 856000 M⁻¹ s⁻¹.

Take B26: the Kd turned out to be 423 pM, the koff is 0.000174 s⁻¹ and the association rate constant (kon) is 410000 M⁻¹ s⁻¹.

With B27, the dissociation constant Kd is 390 pM, the off-rate constant (koff) was 0.000179 s⁻¹ and the kon turned out to be 460000 M⁻¹ s⁻¹.

As to B28, the Kd was determined as 394 pM, the koff was 0.000149 s⁻¹ and the on-rate constant (kon) worked out at 379000 M⁻¹ s⁻¹.

Turning to B29, the dissociation constant Kd came out at 412 pM, the koff amounted to 0.000137 s⁻¹ and the on-rate (kon) is 332000 M⁻¹ s⁻¹.

Consider B30, for which the Kd amounted to 1940 pM, the dissociation rate constant (koff) is 0.00105 s⁻¹ and the kon came out at 539000 M⁻¹ s⁻¹.

In the case of B31, the Kd is 467 pM, the off-rate (koff) turned out to be 0.000162 s⁻¹ and the on-rate constant (kon) was determined as 348000 M⁻¹ s⁻¹.

Take B32: the Kd was found to be 350 pM, the koff is 0.000147 s⁻¹ and the kon was 420000 M⁻¹ s⁻¹.
